Starred links: 1 amine or outer side, 2 acyl side, 3 side chain; linkers in the order of their positions; H or OH if unused. Non-standard residues stand in square brackets, D forms with d. Groups on a side chain read outwards from the residue. No end group written: not given here. *: point of attachment. C20 diacid = O=C(O)CCCCCCCCCCCCCCCCCCC(=O)*; C18 diacid = O=C(O)CCCCCCCCCCCCCCCCC(=O)*; γGlu = O=C(O)[C@H](CCC(=O)[*:2])N[*:1]; αMeF = C[C@](N)(Cc1ccccc1)C(=O)O; AEEA = NCCOCCOCC(=O)O; Aib = CC(C)(N)C(=O)O
B1: Peptide 517 (peptide)
peptide: H[Aib]QGTFTSDVSK[αMeF]LEAK([AEEA-AEEA-γGlu-γGlu-C18 diacid])AAREFIAWLLET-NH2
modifications: N-terminus assumed
SMILES: CC[C@H](C)[C@H](NC(=O)[C@H](Cc1ccccc1)NC(=O)[C@H](CCC(=O)O)NC(=O)[C@H](CCCNC(=N)N)NC(=O)[C@H](C)NC(=O)[C@H](C)NC(=O)[C@H](CCCCNC(=O)COCCOCCNC(=O)COCCOCCNC(=O)CC[C@H](NC(=O)CC[C@H](NC(=O)CCCCCCCCCCCCCCCCC(=O)O)C(=O)O)C(=O)O)NC(=O)[C@H](C)NC(=O)[C@H](CCC(=O)O)NC(=O)[C@H](CC(C)C)NC(=O)[C@](C)(Cc1ccccc1)NC(=O)[C@H](CCCCN)NC(=O)[C@H](CO)NC(=O)[C@@H](NC(=O)[C@H](CC(=O)O)NC(=O)[C@H](CO)NC(=O)[C@@H](NC(=O)[C@H](Cc1ccccc1)NC(=O)[C@@H](NC(=O)CNC(=O)[C@H](CCC(N)=O)NC(=O)C(C)(C)NC(=O)[C@@H](N)Cc1c[nH]cn1)[C@@H](C)O)[C@@H](C)O)C(C)C)C(=O)N[C@@H](C)C(=O)N[C@@H](Cc1c[nH]c2ccccc12)C(=O)N[C@@H](CC(C)C)C(=O)N[C@@H](CC(C)C)C(=O)N[C@@H](CCC(=O)O)C(=O)N[C@H](C(N)=O)[C@@H](C)O
B2: Peptide 513 (peptide)
peptide: H[Aib]QGT[αMeF]TSDVSK[αMeF]LDTK([AEEA-AEEA-γGlu-C18 diacid])RARD[αMeF]VQWLLA[Aib]G-NH2
modifications: N-terminus assumed
SMILES: CC(C)C[C@H](NC(=O)[C@H](CC(C)C)NC(=O)[C@H](Cc1c[nH]c2ccccc12)NC(=O)[C@H](CCC(N)=O)NC(=O)[C@@H](NC(=O)[C@](C)(Cc1ccccc1)NC(=O)[C@H](CC(=O)O)NC(=O)[C@H](CCCNC(=N)N)NC(=O)[C@H](C)NC(=O)[C@H](CCCNC(=N)N)NC(=O)[C@H](CCCCNC(=O)COCCOCCNC(=O)COCCOCCNC(=O)CC[C@H](NC(=O)CCCCCCCCCCCCCCCCC(=O)O)C(=O)O)NC(=O)[C@@H](NC(=O)[C@H](CC(=O)O)NC(=O)[C@H](CC(C)C)NC(=O)[C@](C)(Cc1ccccc1)NC(=O)[C@H](CCCCN)NC(=O)[C@H](CO)NC(=O)[C@@H](NC(=O)[C@H](CC(=O)O)NC(=O)[C@H](CO)NC(=O)[C@@H](NC(=O)[C@](C)(Cc1ccccc1)NC(=O)[C@@H](NC(=O)CNC(=O)[C@H](CCC(N)=O)NC(=O)C(C)(C)NC(=O)[C@@H](N)Cc1c[nH]cn1)[C@@H](C)O)[C@@H](C)O)C(C)C)[C@@H](C)O)C(C)C)C(=O)N[C@@H](C)C(=O)NC(C)(C)C(=O)NCC(N)=O
B3: Peptide 512 (peptide)
peptide: H[Aib]QGT[αMeF]TSDVSK[αMeF]LDTK([AEEA-AEEA-γGlu-C18 diacid])RAQD[αMeF]VRWLLA[Aib]G-NH2
modifications: N-terminus assumed
SMILES: CC(C)C[C@H](NC(=O)[C@H](CC(C)C)NC(=O)[C@H](Cc1c[nH]c2ccccc12)NC(=O)[C@H](CCCNC(=N)N)NC(=O)[C@@H](NC(=O)[C@](C)(Cc1ccccc1)NC(=O)[C@H](CC(=O)O)NC(=O)[C@H](CCC(N)=O)NC(=O)[C@H](C)NC(=O)[C@H](CCCNC(=N)N)NC(=O)[C@H](CCCCNC(=O)COCCOCCNC(=O)COCCOCCNC(=O)CC[C@H](NC(=O)CCCCCCCCCCCCCCCCC(=O)O)C(=O)O)NC(=O)[C@@H](NC(=O)[C@H](CC(=O)O)NC(=O)[C@H](CC(C)C)NC(=O)[C@](C)(Cc1ccccc1)NC(=O)[C@H](CCCCN)NC(=O)[C@H](CO)NC(=O)[C@@H](NC(=O)[C@H](CC(=O)O)NC(=O)[C@H](CO)NC(=O)[C@@H](NC(=O)[C@](C)(Cc1ccccc1)NC(=O)[C@@H](NC(=O)CNC(=O)[C@H](CCC(N)=O)NC(=O)C(C)(C)NC(=O)[C@@H](N)Cc1c[nH]cn1)[C@@H](C)O)[C@@H](C)O)C(C)C)[C@@H](C)O)C(C)C)C(=O)N[C@@H](C)C(=O)NC(C)(C)C(=O)NCC(N)=O
B4: Peptide 509 (peptide)
peptide: H[Aib]QGTFTSDVSK[αMeF]LESK([AEEA-AEEA-γGlu-C20 diacid])RAQDFVRWLL[Aib]TE-OH
modifications: N-terminus assumed
SMILES: CC(C)C[C@H](NC(=O)[C@H](Cc1c[nH]c2ccccc12)NC(=O)[C@H](CCCNC(=N)N)NC(=O)[C@@H](NC(=O)[C@H](Cc1ccccc1)NC(=O)[C@H](CC(=O)O)NC(=O)[C@H](CCC(N)=O)NC(=O)[C@H](C)NC(=O)[C@H](CCCNC(=N)N)NC(=O)[C@H](CCCCNC(=O)COCCOCCNC(=O)COCCOCCNC(=O)CC[C@H](NC(=O)CCCCCCCCCCCCCCCCCCC(=O)O)C(=O)O)NC(=O)[C@H](CO)NC(=O)[C@H](CCC(=O)O)NC(=O)[C@H](CC(C)C)NC(=O)[C@](C)(Cc1ccccc1)NC(=O)[C@H](CCCCN)NC(=O)[C@H](CO)NC(=O)[C@@H](NC(=O)[C@H](CC(=O)O)NC(=O)[C@H](CO)NC(=O)[C@@H](NC(=O)[C@H](Cc1ccccc1)NC(=O)[C@@H](NC(=O)CNC(=O)[C@H](CCC(N)=O)NC(=O)C(C)(C)NC(=O)[C@@H](N)Cc1c[nH]cn1)[C@@H](C)O)[C@@H](C)O)C(C)C)C(C)C)C(=O)N[C@@H](CC(C)C)C(=O)NC(C)(C)C(=O)N[C@H](C(=O)N[C@@H](CCC(=O)O)C(=O)O)[C@@H](C)O
B5: Peptide 515 (peptide)
peptide: H[Aib]QGTFTSDVSK[αMeF]LDTK([AEEA-AEEA-γGlu-C20 diacid])AARDFVQWLLE[Aib]G-NH2
modifications: N-terminus assumed
SMILES: CC(C)C[C@H](NC(=O)[C@H](Cc1c[nH]c2ccccc12)NC(=O)[C@H](CCC(N)=O)NC(=O)[C@@H](NC(=O)[C@H](Cc1ccccc1)NC(=O)[C@H](CC(=O)O)NC(=O)[C@H](CCCNC(=N)N)NC(=O)[C@H](C)NC(=O)[C@H](C)NC(=O)[C@H](CCCCNC(=O)COCCOCCNC(=O)COCCOCCNC(=O)CC[C@H](NC(=O)CCCCCCCCCCCCCCCCCCC(=O)O)C(=O)O)NC(=O)[C@@H](NC(=O)[C@H](CC(=O)O)NC(=O)[C@H](CC(C)C)NC(=O)[C@](C)(Cc1ccccc1)NC(=O)[C@H](CCCCN)NC(=O)[C@H](CO)NC(=O)[C@@H](NC(=O)[C@H](CC(=O)O)NC(=O)[C@H](CO)NC(=O)[C@@H](NC(=O)[C@H](Cc1ccccc1)NC(=O)[C@@H](NC(=O)CNC(=O)[C@H](CCC(N)=O)NC(=O)C(C)(C)NC(=O)[C@@H](N)Cc1c[nH]cn1)[C@@H](C)O)[C@@H](C)O)C(C)C)[C@@H](C)O)C(C)C)C(=O)N[C@@H](CC(C)C)C(=O)N[C@@H](CCC(=O)O)C(=O)NC(C)(C)C(=O)NCC(N)=O
B6: Peptide 514 (peptide)
peptide: H[Aib]QGTFTSDVSK[αMeF]LDTK([AEEA-AEEA-γGlu-C18 diacid])AARDFVQWLLE[Aib]G-NH2
modifications: N-terminus assumed
SMILES: CC(C)C[C@H](NC(=O)[C@H](Cc1c[nH]c2ccccc12)NC(=O)[C@H](CCC(N)=O)NC(=O)[C@@H](NC(=O)[C@H](Cc1ccccc1)NC(=O)[C@H](CC(=O)O)NC(=O)[C@H](CCCNC(=N)N)NC(=O)[C@H](C)NC(=O)[C@H](C)NC(=O)[C@H](CCCCNC(=O)COCCOCCNC(=O)COCCOCCNC(=O)CC[C@H](NC(=O)CCCCCCCCCCCCCCCCC(=O)O)C(=O)O)NC(=O)[C@@H](NC(=O)[C@H](CC(=O)O)NC(=O)[C@H](CC(C)C)NC(=O)[C@](C)(Cc1ccccc1)NC(=O)[C@H](CCCCN)NC(=O)[C@H](CO)NC(=O)[C@@H](NC(=O)[C@H](CC(=O)O)NC(=O)[C@H](CO)NC(=O)[C@@H](NC(=O)[C@H](Cc1ccccc1)NC(=O)[C@@H](NC(=O)CNC(=O)[C@H](CCC(N)=O)NC(=O)C(C)(C)NC(=O)[C@@H](N)Cc1c[nH]cn1)[C@@H](C)O)[C@@H](C)O)C(C)C)[C@@H](C)O)C(C)C)C(=O)N[C@@H](CC(C)C)C(=O)N[C@@H](CCC(=O)O)C(=O)NC(C)(C)C(=O)NCC(N)=O
B7: Peptide 510 (peptide)
peptide: H[Aib]QGTFTSDVSK[αMeF]LDTK([AEEA-AEEA-γGlu-C20 diacid])RARDFVRWLL[Aib]E-OH
modifications: N-terminus assumed
SMILES: CC(C)C[C@H](NC(=O)[C@H](Cc1c[nH]c2ccccc12)NC(=O)[C@H](CCCNC(=N)N)NC(=O)[C@@H](NC(=O)[C@H](Cc1ccccc1)NC(=O)[C@H](CC(=O)O)NC(=O)[C@H](CCCNC(=N)N)NC(=O)[C@H](C)NC(=O)[C@H](CCCNC(=N)N)NC(=O)[C@H](CCCCNC(=O)COCCOCCNC(=O)COCCOCCNC(=O)CC[C@H](NC(=O)CCCCCCCCCCCCCCCCCCC(=O)O)C(=O)O)NC(=O)[C@@H](NC(=O)[C@H](CC(=O)O)NC(=O)[C@H](CC(C)C)NC(=O)[C@](C)(Cc1ccccc1)NC(=O)[C@H](CCCCN)NC(=O)[C@H](CO)NC(=O)[C@@H](NC(=O)[C@H](CC(=O)O)NC(=O)[C@H](CO)NC(=O)[C@@H](NC(=O)[C@H](Cc1ccccc1)NC(=O)[C@@H](NC(=O)CNC(=O)[C@H](CCC(N)=O)NC(=O)C(C)(C)NC(=O)[C@@H](N)Cc1c[nH]cn1)[C@@H](C)O)[C@@H](C)O)C(C)C)[C@@H](C)O)C(C)C)C(=O)N[C@@H](CC(C)C)C(=O)NC(C)(C)C(=O)N[C@@H](CCC(=O)O)C(=O)O

Columns and labels:
human GLP-1 receptor = human GLP-1 receptor (human, UniProt P43220); assay: cell-based or functional assay
human glucagon receptor = human glucagon receptor (human, UniProt P47871); assay: cell-based or functional assay

Binder	cAMP production EC50 (human GLP-1 receptor)	cAMP production EC50 (human glucagon receptor)
B1	0.146 nM	0.738 nM
B2	0.0938 nM	1.34 nM
B3	0.159 nM	2.31 nM
B4	0.594 nM	3.02 nM
B5	0.297 nM	2.66 nM
B6	0.0767 nM	1.37 nM
B7	0.176 nM	0.118 nM

— patent US12630600B2 (MEDIMMUNE LIMITED, priority 2022, dated 2026)
